Test results as given in patent publication US12528870B2, “Anti-c-Met antibody-drug conjugate and applications thereof” (REMEGEN CO., LTD., priority 2020, dated 2026).
Like-named read-outs stand apart in the source and are kept apart here.

Tests used:
c-Met-positive NSCLC = conditions: cited from earlier work
[1] = system: advanced solid tumors / NSCLC; conditions: cited from earlier work
c-Met protein = c-Met protein (Homo sapiens, UniProt P08581); test: ELISA binding ability to c-Met antigen; conditions: c-Met protein coated at 2 μg/ml
Description: The c-Met protein was prepared with a diluent to a final concentration of 2 μg/ml, and added to a microplate at 100 μl per well, overnight at 4° C. The solution in the well was discarded, and the plate was washed three times with PBST. The plate was added with a blocking solution at 300 μl/well and incubated at 37° C. for 2 h. The solution in the well was discarded, and the plate was washed three times with PBST. AAJ8D6 antibody and ABT-700 (i.e., telisotuzumab, its sequence information can be found at https://extranet.who.int/soinn/mod/page/view.php?id=137&inn n=10366, the same below) were diluted to 9 concentrations, added to the 96-well plate and incubated for 2 h. The solution in the well was discarded, and the plate was washed three times with PBST. HRP detection antibody was prepared by adding diluent at a dilution of 1:5000, added at 100 μl per well, and incubated at 37° C. for 1 h. The solution in the well was discarded, and the plate was washed three times with PB ST. The plate was added with TMB color developing solution, incubated at room temperature for 2 min, and then added with Elisa stop solution.

[2] = combined administration group (with erlotinib)
[3] = single administration cohort, c-Met-positive NSCLC

c-Met protein, sequence (P08581 25-1390): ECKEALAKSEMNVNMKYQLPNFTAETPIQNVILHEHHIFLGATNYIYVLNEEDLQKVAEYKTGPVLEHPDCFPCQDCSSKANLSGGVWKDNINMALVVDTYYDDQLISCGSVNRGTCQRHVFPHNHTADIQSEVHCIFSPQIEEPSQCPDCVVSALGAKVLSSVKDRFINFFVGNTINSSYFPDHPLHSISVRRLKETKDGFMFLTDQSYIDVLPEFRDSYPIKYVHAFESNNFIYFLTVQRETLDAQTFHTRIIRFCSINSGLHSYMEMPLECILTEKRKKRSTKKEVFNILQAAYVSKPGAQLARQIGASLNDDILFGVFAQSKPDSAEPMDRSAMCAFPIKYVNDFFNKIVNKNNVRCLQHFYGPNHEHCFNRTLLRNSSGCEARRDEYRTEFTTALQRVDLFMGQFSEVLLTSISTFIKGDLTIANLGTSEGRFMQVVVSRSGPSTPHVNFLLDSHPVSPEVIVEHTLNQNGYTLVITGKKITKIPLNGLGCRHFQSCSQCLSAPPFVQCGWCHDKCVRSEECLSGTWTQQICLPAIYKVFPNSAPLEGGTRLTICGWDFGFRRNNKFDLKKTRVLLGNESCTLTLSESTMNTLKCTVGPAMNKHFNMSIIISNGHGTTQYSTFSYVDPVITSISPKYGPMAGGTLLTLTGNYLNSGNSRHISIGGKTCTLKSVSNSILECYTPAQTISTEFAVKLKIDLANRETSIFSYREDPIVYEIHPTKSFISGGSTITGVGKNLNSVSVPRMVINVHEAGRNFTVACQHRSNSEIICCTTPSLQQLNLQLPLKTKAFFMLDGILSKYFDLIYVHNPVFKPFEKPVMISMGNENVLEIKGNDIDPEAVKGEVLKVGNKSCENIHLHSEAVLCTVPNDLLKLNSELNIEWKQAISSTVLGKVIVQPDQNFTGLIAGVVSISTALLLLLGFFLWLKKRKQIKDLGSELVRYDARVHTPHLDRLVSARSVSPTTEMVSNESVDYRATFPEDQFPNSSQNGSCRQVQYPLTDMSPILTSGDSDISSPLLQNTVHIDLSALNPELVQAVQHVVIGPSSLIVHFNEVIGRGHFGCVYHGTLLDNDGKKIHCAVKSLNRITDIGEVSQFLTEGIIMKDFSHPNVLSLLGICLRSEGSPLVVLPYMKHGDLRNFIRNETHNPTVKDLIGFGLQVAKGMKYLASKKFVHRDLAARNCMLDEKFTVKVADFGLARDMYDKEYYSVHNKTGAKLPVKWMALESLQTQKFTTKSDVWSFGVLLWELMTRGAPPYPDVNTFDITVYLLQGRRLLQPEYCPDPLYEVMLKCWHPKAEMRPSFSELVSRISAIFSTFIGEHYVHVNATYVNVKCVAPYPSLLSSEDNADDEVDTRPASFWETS

EC50 (c-Met protein) [ng/mL] | Substance | dose at which well tolerated (c-Met-positive NSCLC; NSCLC patients) [mg/kg] | patients with partial remission (c-Met-positive NSCLC; combined administration group (with erlotinib), 1 remains to be confirmed) | patients under control (c-Met-positive NSCLC; combined administration group (with erlotinib), after 12 weeks of treatment) [%] | adverse reaction: nausea, patients (c-Met-positive NSCLC; [2]) [%] | adverse reaction: neuralgia, patients (c-Met-positive NSCLC; [2]) [%] | adverse reaction: fatigue, patients (c-Met-positive NSCLC; [3]) [%] | adverse reaction: nausea (first listed), patients (c-Met-positive NSCLC; [3]) [%] | adverse reaction: nausea (listed a second time), patients (c-Met-positive NSCLC; [3]) [%] | treatment-related deaths (c-Met-positive NSCLC; single administration group and combined administration group) | patients under control (c-Met-positive NSCLC; single administration group, after 12 weeks of administration) [%] | patients who experienced partial remission (c-Met-positive NSCLC; single administration group) | patients who experienced partial remission ([1]; NSCLC patients with H-score ≥150) | tolerated dose ([1]; every three weeks) [mg/kg] | most frequently occurring toxicity: decreased appetite ([1]; in vivo) [%] | most frequently occurring toxicity: diarrhea ([1]; in vivo) [%] | most frequently occurring toxicity: vomiting ([1]; in vivo) [%]
 | ABBV-399 | 2.7 | 4/13 | 76.9 | 23.1 | 46.2 | 43.8 | 37.5 | 18.8 | no treatment-related deaths | 56.3 | 3/16 | about 19% | 2.7 | 13 | 10 | 13
1.33 | ABT-700: competitor anti-c-Met antibody, i.e. telisotuzumab |  |  |  |  |  |  |  |  |  |  |  |  |  |  |  | 
